Experimental data as given in publication PMC11514446, “Transcription start site scanning requires the fungi-specific hydrophobic loop of Tfb3” (Nucleic Acids Research, 2024).

T1: Rad3 (subunit of core TFIIH / TFIIH-ΔTFIIK) (S. cerevisiae, UniProt P06839 1-778)
T1 construct: Rad3, S. cerevisiae, subunit of the seven-subunit core TFIIH; contains the ARCH domain; Stood in the assay as a subunit of core TFIIH inside the reconstituted PIC-ΔTFIIK; also called XPD of metazoan TFIIH (homolog)
T1 sequence (looked up): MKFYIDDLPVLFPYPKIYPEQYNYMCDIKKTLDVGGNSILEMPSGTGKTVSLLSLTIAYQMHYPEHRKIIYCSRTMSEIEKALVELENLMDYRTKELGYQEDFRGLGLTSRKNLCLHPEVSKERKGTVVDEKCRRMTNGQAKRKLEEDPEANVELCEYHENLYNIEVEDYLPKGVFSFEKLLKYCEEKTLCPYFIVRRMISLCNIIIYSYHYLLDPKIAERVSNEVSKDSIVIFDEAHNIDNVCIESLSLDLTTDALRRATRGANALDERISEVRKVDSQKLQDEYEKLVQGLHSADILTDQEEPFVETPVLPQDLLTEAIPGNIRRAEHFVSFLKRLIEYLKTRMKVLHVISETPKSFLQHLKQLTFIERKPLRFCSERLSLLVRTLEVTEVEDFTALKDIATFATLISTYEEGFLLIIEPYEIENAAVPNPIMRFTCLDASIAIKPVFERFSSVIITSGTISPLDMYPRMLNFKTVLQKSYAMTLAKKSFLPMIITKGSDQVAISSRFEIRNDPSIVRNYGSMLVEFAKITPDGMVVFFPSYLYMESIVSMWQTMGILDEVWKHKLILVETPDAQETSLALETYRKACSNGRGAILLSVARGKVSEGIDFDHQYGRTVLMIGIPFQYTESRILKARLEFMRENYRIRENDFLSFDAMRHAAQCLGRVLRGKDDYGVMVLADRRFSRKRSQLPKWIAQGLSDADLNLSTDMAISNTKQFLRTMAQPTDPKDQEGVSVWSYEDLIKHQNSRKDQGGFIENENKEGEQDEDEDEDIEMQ

B1: Rpb4 (subunit of RNA polymerase II) (natural protein, S. cerevisiae, UniProt P20433 1-221, looked up)
chain: MNVSTSTFQTRRRRLKKVEEEENAATLQLGQEFQLKQINHQGEEEELIALNLSEARLVIKEALVERRRAFKRSQKKHKKKHLKHENANDETTAVEDEDDDLDEDDVNADDDDFMHSETREKELESIDVLLEQTTGGNNKDLKNTMQYLTNFSRFRDQETVGAVIQLLKSTGLHPFEVAQLGSLACDTADEAKTLIPSLNNKISDDELERILKELSNLETLY
notes: Rpb4, S. cerevisiae, subunit of RNA polymerase II; Stood in the assay as a subunit of pol II inside the reconstituted PIC-ΔTFIIK
B2: Tfa1 (subunit of TFIIE) (natural protein, S. cerevisiae, UniProt P36100 1-482, looked up)
chain: MDRPIDDIVKNLLKFVVRGFYGGSFVLVLDAILFHSVLAEDDLKQLLSINKTELGPLIARLRSDRLISIHKQREYPPNSKSVERVYYYVKYPHAIDAIKWKVHQVVQRLKDDLDKNSEPNGYMCPICLTKYTQLEAVQLLNFDRTEFLCSLCDEPLVEDDSGKKNKEKQDKLNRLMDQIQPIIDSLKKIDDSRIEENTFEIALARLIPPQNQSHAAYTYNPKKGSTMFRPGDSAPLPNLMGTALGNDSSRRAGANSQATLHINITTASDEVAQRELQERQAEEKRKQNAVPEWHKQSTIGKTALGRLDNEEEFDPVVTASAMDSINPDNEPAQETSYQNNRTLTEQEMEERENEKTLNDYYAALAKKQAKLNKEEEEEEEEEEDEEEEEEEEMEDVMDDNDETARENALEDEFEDVTDTAGTAKTESNTSNDVKQESINDKTEDAVNATATASGPSANAKPNDGDDDDDDDDDEMDIEFEDV
notes: Tfa1, S. cerevisiae, subunit of TFIIE; Stood in the assay as a subunit of TFIIE inside the reconstituted PIC-ΔTFIIK
B3: Tfa2 (subunit of TFIIE) (natural protein, S. cerevisiae, UniProt P36145 1-328, looked up)
chain: MSKNRDPLLANLNAFKSKVKSAPVIAPAKVGQKKTNDTVITIDGNTRKRTASERAQENTLNSAKNPVLVDIKKEAGSNSSNAISLDDDDDDEDFGSSPSKKVRPGSIAAAALQANQTDISKSHDSSKLLWATEYIQKKGKPVLVNELLDYLSMKKDDKVIELLKKLDRIEFDPKKGTFKYLSTYDVHSPSELLKLLRSQVTFKGISCKDLKDGWPQCDETINQLEEDSKILVLRTKKDKTPRYVWYNSGGNLKCIDEEFVKMWENVQLPQFAELPRKLQDLGLKPASVDPATIKRQTKRVEVKKKRQRKGKITNTHMTGILKDYSHRV
notes: Tfa2, S. cerevisiae, subunit of TFIIE; contains the WH domain; Stood in the assay as a subunit of TFIIE inside the reconstituted PIC-ΔTFIIK

Target: T1, Rad3 (subunit of core TFIIH / …)
Experiment: cryo-EM structure; PIC-ΔTFIIK reconstituted from purified factors (TFIIA, TFIIB, TBP, TFIIE, TFIIF, TFIIH-ΔTFIIK, pol II, TFIIS) on a HIS4 promoter DNA fragment, nucleotide-free; glycerol gradient with 0-0.125% glutaraldehyde fixation; two forms from 3D classification (form 1 at 3.7 Å, form 2 at 3.8 Å)
Settings: both partners purified

binding result | Binder
binds | B1
binds | B2
binds | B3
